Test results reported in publication PMC9168836, “Clamping of DNA shuts the condensin neck gate” (Proceedings of the National Academy of Sciences of the …, 2021).

T1: Smc4-3xStrepII (budding yeast (S. cerevisiae), UniProt Q12267 1-1418)
T1 construct: Smc4, SMC subunit of budding yeast (S. cerevisiae) condensin; only the head domain, proximal coiled coil and residues 126-144 are resolved in the maps; The tag's end is read from the plasmid's name SMC4-3xStrepII; also called Scm4
T1 sequence: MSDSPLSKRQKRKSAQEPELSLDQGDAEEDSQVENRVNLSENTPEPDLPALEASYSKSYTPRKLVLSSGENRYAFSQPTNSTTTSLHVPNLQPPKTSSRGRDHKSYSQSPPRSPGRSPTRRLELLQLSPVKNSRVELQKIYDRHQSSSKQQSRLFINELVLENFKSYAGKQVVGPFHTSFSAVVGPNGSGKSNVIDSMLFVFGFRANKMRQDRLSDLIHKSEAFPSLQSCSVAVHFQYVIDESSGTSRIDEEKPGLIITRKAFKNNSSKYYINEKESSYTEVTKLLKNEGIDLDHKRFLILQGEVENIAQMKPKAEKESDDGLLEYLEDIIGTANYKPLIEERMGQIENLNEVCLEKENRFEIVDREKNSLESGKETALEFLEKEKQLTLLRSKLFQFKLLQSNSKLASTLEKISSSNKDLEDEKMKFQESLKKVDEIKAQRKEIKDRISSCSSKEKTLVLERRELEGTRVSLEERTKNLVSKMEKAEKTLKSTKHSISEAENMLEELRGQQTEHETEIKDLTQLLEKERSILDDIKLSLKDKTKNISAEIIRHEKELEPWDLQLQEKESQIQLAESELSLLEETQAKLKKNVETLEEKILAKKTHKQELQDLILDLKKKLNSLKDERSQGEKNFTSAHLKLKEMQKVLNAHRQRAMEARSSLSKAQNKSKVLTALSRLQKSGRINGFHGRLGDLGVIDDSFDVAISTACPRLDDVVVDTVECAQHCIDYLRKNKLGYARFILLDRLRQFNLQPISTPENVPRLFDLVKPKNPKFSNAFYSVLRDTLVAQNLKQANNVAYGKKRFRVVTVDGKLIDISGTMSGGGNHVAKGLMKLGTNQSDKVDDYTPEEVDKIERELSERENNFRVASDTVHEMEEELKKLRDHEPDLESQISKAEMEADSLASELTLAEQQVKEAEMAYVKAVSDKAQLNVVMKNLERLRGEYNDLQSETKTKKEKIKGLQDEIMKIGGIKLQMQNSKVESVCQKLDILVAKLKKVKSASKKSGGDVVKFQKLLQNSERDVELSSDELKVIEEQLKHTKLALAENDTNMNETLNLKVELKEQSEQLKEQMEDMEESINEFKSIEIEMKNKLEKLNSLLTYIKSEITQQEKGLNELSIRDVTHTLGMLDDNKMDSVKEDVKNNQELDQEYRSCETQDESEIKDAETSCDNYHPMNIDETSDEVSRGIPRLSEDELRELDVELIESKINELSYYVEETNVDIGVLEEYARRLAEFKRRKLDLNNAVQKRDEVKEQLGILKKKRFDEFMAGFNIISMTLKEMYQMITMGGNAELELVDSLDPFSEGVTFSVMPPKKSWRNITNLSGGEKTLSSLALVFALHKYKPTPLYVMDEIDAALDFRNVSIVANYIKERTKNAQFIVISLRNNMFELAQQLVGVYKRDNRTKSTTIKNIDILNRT

B1: Ycs4 (natural protein, S. cerevisiae)
chain: MSGFSLSEYLTKFQTTDRESYPRLQDPSRELNVIIDQLAVSPEQIDASPDSLEALIDLCHDFPHLTPKLQTQLSYLISSSLSNLSKDIKANLSSNVNFTEIGGLIPQWKRHLEEYGYLIQVLLTFLQDELHKVSSQSTNLNRSAKNSKNDSANVELFKRDCNQMENLLESITKLLEINLSKIFQTTPEKDLFIGLFTRPLFVLLEIEPVTKVSSLKMFIQRILAMCVKNHGQSSSIQSSLMTNLTYFLHLSVFNAELLKLLNDEYNYPQLTEDILKEISTRVFNAKDTTGPKAISNFLIKLSELSPGIMLRQMNLVITLLNNSSITLRCSVVEACGNIVAELAQDPQTMEHYKQQIAVLIELLEERFQDSNPYVRTKAIQGCSKICDLSSKFNKSKAKFTSLAVRSLQDRSSLVRRNSVKLLSKLLLKHPFKAIHGSQLRLSEWEEYLKGSESQLNSTLKKVESQETLNDTIERSLIEEEVEQDEGQCRTELEGSFNKSAELSRIENEVENINATNTSVLMKLKLMIVYYKDAISFIKEIHKSIELISNLLFSKNRNEVLESMDFLVLADAFDIELSEFGIKKMLHLVWMKGTNDEGTSISVHLIECYKQLFLTAPDSCNMQEKAAHIAKNLINLSIGASIADLASLEQLLGMMYEQKLIDQHVINILWAIYNSASKASMQKEQNVNNRDSEKGFSKEQIHGSIIILGMLSLADNEIALKGLESLLNIGLGAVGLKDLTLCRYSCLALERMVPKRSTIITKAINQELEDVAVKKLYAIIINYTKDNEYYPMCEQALSALFTISSKPDILATDLIREKTMMTFGKPEEEDSILSLEQSSRVVSLSQLLFIVGQVAIKTLVYLEKCEAEFKKRKIEAETRNGKVKNQGADVTNTTQDNGGDKELEMIGGTNEDDFTDAIQFVKENELLFGEKSILGKFCPIVEEIVSNSSRFSDPMLQRTATLCLEKLMCLSSKYCEKSLPLLITVMEKSPDPTIRSNAVLGLGDMAVCFNNLVDENTDYLYRRLHDENLMVQRTCLMTVTFLILAGQVKVKGQLGEMAKCLDNPDQGISDMCRLFFTELASKDNAIYNGFIDIFSNLSSDDLLGKESFKKIIKFLLTFIDKERHQKQLNEKLVGRLRKCETQKQWDDIAFVLNNLPYKNEDVTALLEQGFKVVSAKE
notes: Ycs4, HAWK (HEAT repeat) subunit of S. cerevisiae condensin
B2: Smc2 (natural protein, budding yeast (S. cerevisiae))
chain: MKVEELIIDGFKSYATRTVITDWDPQFNAITGLNGSGKSNILDAICFVLGIASMSTVRASSLQDLIYKRGQAGVTKASVTIVFDNTDKSNSPIGFTNSPQISVTRQVVLGGTSKYLINGHRAPQQSVLQLFQSVQLNINNPNFLIMQGKITKVLNMKPSEILSLIEEAAGTKMFEDRREKAERTMSKKETKLQENRTLLTEEIEPKLEKLRNEKRMFLEFQSTQTDLEKTERIVVSYEYYNIKHKHTSIRETLENGETRMKMLNEFVKKTSEEIDSLNEDVEEIKLQKEKELHKEGTISKLENKENGLLNEISRLKTSLSIKVENLNDTTEKSKALESEIASSSAKLIEKKSAYANTEKDYKMVQEQLSKQRDLYKRKEELVSTLTTGISSTGAADGGYNAQLAKAKTELNEVSLAIKKSSMKMELLKKELLTIEPKLKEATKDNELNVKHVKQCQETCDKLRARLVEYGFDPSRIKDLKQREDKLKSHYYQTCKNSEYLKRRVTNLEFNYTKPYPNFEASFVHGVVGQLFQIDNDNIRYATALQTCAGGRLFNVVVQDSQTATQLLERGRLRKRVTIIPLDKIYTRPISSQVLDLAKKIAPGKVELAINLIRFDESITKAMEFIFGNSLICEDPETAKKITFHPKIRARSITLQGDVYDPEGTLSGGSRNTSESLLVDIQKYNQIQKQIETIQADLNHVTEELQTQYATSQKTKTIQSDLNLSLHKLDLAKRNLDANPSSQIIARNEEILRDIGECENEIKTKQMSLKKCQEEVSTIEKDMKEYDSDKGSKLNELKKELKLLAKELEEQESESERKYDLFQNLELETEQLSSELDSNKTLLHNHLKSIESLKLENSDLEGKIRGVEDDLVTVQTELNEEKKRLMDIDDELNELETLIKKKQDEKKSSELELQKLVHDLNKYKSNTNNMEKIIEDLRQKHEFLEDFDLVRNIVKQNEGIDLDTYRERSKQLNEKFQELRKKVNPNIMNMIENVEKKEAALKTMIKTIEKDKMKIQETISKLNEYKRETLVKTWEKVTLDFGNIFADLLPNSFAKLVPCEGKDVTQGLEVKVKLGNIWKESLIELSGGQRSLIALSLIMALLQFRPAPMYILDEVDAALDLSHTQNIGHLIKTRFKGSQFIVVSLKEGMFANANRVFRTRFQDGTSVVSIM
notes: Smc2, SMC subunit of budding yeast (S. cerevisiae) condensin; only the head domain and proximal coiled coil (neck) are resolved in the maps; Subunit of the wild-type condensin tetramer and pentamer used for cryo-EM

What was measured:
Conditions in all cases: both partners purified
Smc4-3xStrepII [1] = target: T1, Smc4-3xStrepII; assay: cryo-EM structure; condensin pentamer (Smc2, Smc4, Brn1, Ycs4, Ycg1) with 80-bp dsDNA, 5 mM ADP, 1 mM BeSO4, 10 mM NaF in TNT buffer pH 7.5; separate maps of the clamped head module and of Ycg1-DNA
Smc4-3xStrepII [2] = target: T1, Smc4-3xStrepII; assay: cryo-EM structure; condensin tetramer (Smc2, Smc4, Brn1, Ycs4) with 80-bp dsDNA, 5 mM ADP, 1 mM BeSO4, 10 mM NaF in TNT buffer (30 mM Tris/HCl, 60 mM NaCl, 1 mM TCEP, 2 mM MgCl2, pH 7.5), 30 min at room temperature; clamped head module, Forms I and II
Ycs4 = target: B1; assay: cryo-EM structure; condensin pentamer (Smc2, Smc4, Brn1, Ycs4, Ycg1) with 80-bp dsDNA, 5 mM ADP, 1 mM BeSO4, 10 mM NaF in TNT buffer pH 7.5; separate maps of the clamped head module and of Ycg1-DNA

Row | binding result (Smc4-3xStrepII [1]) | binding result (Smc4-3xStrepII [2]) | binding result (Ycs4) | Binder
1 | binds | – | – | B1
2 | – | binds | binds | B2
